Literature values in article PMC5755571.

Molecular target: His64 (UniProt position 64, ILNNGHAFNVE)

With “Carbonic anhydrase II (hCAII) (Homo sapiens)” as the substance, how does the pKa read?
Its pKa is “around 7”.
